Laboratory results as given in US20150273076A1, “SP1 POLYPEPTIDES, MODIFIED SP1 POLYPEPTIDES AND USES THEREOF” (Fulcrum SP Ltd., priority 2006, published 2015).
In brackets after ≈: the same amount, converted by molar mass. Entries after “also recorded” stand apart in the source; their conditions may differ.

Key:
[1] = test system: Human colon adenocarcinoma (HT-29) cells; assay: In-vitro cytotoxicity in HT-29 cells; assay type: cell-based; conditions: HT-29 cells, dose inhibiting 50% of cell growth
Excerpt: FIGS. 24a and 24b are graphs illustrating the in-vitro cytotoxic effects of SP1-DOX complex. FIG. 24a—HT-29 cells cultured in 96 well microtiter plates were exposed to uncomplexed DOX (closed oval, magenta) or SP1-DOX complex (closed triangle, blue) prepared as described in FIGS. 9-15, at the indicated concentrations. FIG. 24b—HT-29 cells were exposed to uncomplexed SP1 (without DOX) (closed diamond, blue) or SP1-DOX complex (closed triangle, yellow) at indicated concentrations. Proportion of living cells was determined by MTT assay, and the IC50 was calculated.
HT-29 cells were prepared as in FIG. 24 above.
Human colon adenocarcinoma (HT-29) cells. The cells were grown in 50-ml flasks containing DMEM medium (Biological Industries, Bet Haemek), supplemented with 10% fetal calf serum, 1% glutamine and 1% Antibiotic-Antimicotic solution (Biolab, Israel). The cells were trypsinizated, and 2 ml medium containing 5×10^4 cells were plated in each well of a 6-wells plate. SP1, drugs or SP1-complexed with drugs was added at the indicated concentrations. The cells were incubated at 37° C. in a humidified atmosphere containing 5% CO2.After 48 hours the medium in the presence or absence of drugs was replaced in each well respectively, to maintain a constant supply of ingredients and drugs. After four days the medium was removed and the number of viable cells in the cultures was determined by spectroscopy.
The human colorectal adenocarcinoma cell line, HT-29, was used to evaluate the biological activity of the SP1-DOX complex, compared to that of the free drug and un-complexed SP1 protein. […] Thus, the SP1-DOX complex is at least as biologically active as free DOX.

[2] = test system: human LS147T colon cancer; assay: In-vivo anti-tumorogenic activity in colon cancer xenograft; parameters: species or system CD1 nude mice; conditions: SP1-DOX 0.5 and free DOX 3 mg DOX/kg iv two times a week
Description: CD1 nude mice bearing human LS147T colon cancer (one million cells per animal) subcutaneous xenografted tumors were divided into two groups (n=6), and received either SP1-Dox (50 mg/Kg in PBS, about 0.5 mg DOX equivalent/Kg) or PBS (FIG. 27a), or uncomplexed DOX (3 mg/Kg) or PBS (FIG. 27b) alone injected intravenously into the tail vein twice per week for four weeks. Tumors were removed and weighed 35 days post engraftment.
Human LS147T colon cancer (one million cells per animal) were grafted sub cutaneously to CD1 nude mice, […], 18-20 g) (Meyer et al. 1995 Am J Dermatopath; 17:368-73). 8 days later a 3-10-mm tumor appeared in the point of injection. […]
8 days after tumor grafting SP1-DOX (50 mg/Kg in PBS, about […]), free DOX (3 mg/Kg in PBS) or PBS alone, six mice in each group, were injected iv to the tail vein twice a week for four weeks. Tumor dimension was determined by caliper measurements by the standard equation (Kalechman et al. Int J Cancer 2000; 86:281-8). […] Tumors were removed and their weight was determined.
The effect of SP1-complexing on the anti-tumorogenic activity of DOX was determined in vivo using the LS147 (human colon cancer) model in CD1 nude mice (Meyer 1995). […] At 35 days past tumor grafting, the animals were sacrificed, tumors were removed and their weight recorded (FIGS. 27a and 27b). […]

[3] = Resistance of SP1 complex to organic solvents; assay type: physicochemical
Description: 150 ul of 1 mg/ml samples in 10 mM sodium phosphate pH 7 were lyophilized overnight and resuspended in 150 μl organic solvents for 10 minutes. Following a 30 minutes speed vac the samples were resuspended in 150 μl water and analyzed by SDS-PAGE.
In order to further test the stability of SP1 and SP1 oligomeric complexes, wild type SP1 and the SP1 variant Cys2 SP1 were dissolved in buffer, exposed to organic solvents methanol and hexane, and analyzed by SDS-PAGE (FIG. 18).
In order to determine the stability of the SP1 complex in organic solvents, SP1 and Cys2 SP1-variant (SEQ ID NO: 3) were dissolved in organic solvents, dried, reconstituted with aqueous solvent, and separated on SDS-PAGE.

[4] = Fluorescein-amine complex formation (ultrafiltration, size exclusion HPLC); assay type: binding
Description: FIG. 9 is a histogram showing redox-dependent complex formation with small molecules by Cys2 SP1. Pure Cys 2 mutant (1.5 mg/ml in Phosphate buffered saline, pH=7.5 (PBS)) was incubated for 2 hours at room temp, with I mM fluorescein-amine with or without glutathione (reduced form, GSH 3 mM). Binding reaction was stopped by adding hydrogen peroxide (0.01%), followed by ultra filtration (using a 30 kD cutoff filter) and extensive wash. Absorption analysis was conducted at both 278 and 492 nm, and the results expressed as the 492/278 ratio. Note that in the absence of the reducing agent (GSH), retention of the flourescein-amine is negligible;
FIG. 10 is a graphic representation of the redox-dependent fluorescein amine complex formation by Cys2 SP1, compared to the recombinant SP1. Fluorescein-amine was incubated with pure SP1 or Cys2 SP1 mutant (1.5 mg/ml in PBS pH=7.5) in the absence or presence of DTT (10 mM). Binding reaction was stopped by adding hydrogen peroxide (0.01%), followed by ultra filtration (using 30 kD cutoff filter) and extensive wash. Samples were analyzed by Gel filtration HPLC, and detected at both 228 and 490 nm. Calculated data is shown on the right.
FIG. 11 is a histogram illustrating the concentration dependent complex formation with fluorescein-amine by Cys2 SP1. Huorescien-amine (10, 33, 100 or 333 mM) was incubated with Cys 2 SP1 or pure wild type SP1 in the presence of 10 mM DTT, and the bound and unbound fractions analyzed by ultra-filtration and HPLC as in FIG. 10.
(§1) Ultrafiltration was used for the detection of complex formation with the water soluble ligands FA and DOX which have a distinctive absorption properties and can be determined by spectroscopic measurements. […] Several additional washing cycles remove all remaining free FA and DOX, and the ligand-SP1 complex remains in the retained fraction.
(§2) Size exclusion chromatography is a common method for separation of molecules of different sizes under mild conditions and was employed to test FA and DOX complex formation under mild conditions. SP1 is eluted from the column after 7 min and is detected at 278 nm only, and free FA is eluted from the column (TSK G3000 SWXL, Tosohaas) after 16 min and is detected at 490 nm. The SP1-FA and SP1-DOX complexes also eluted at the same time but is detected also at 490 and 475 nm, respectively. DOX/SP1 ratio is determine from the standard curve obtained in solution.
5. Can complexed ligand be stabilized by association with the Cys2 SP1? Fluoresceine amine (FA): FA absorption peak is at 490 nm and at much lower extend at 278 nm (for a given FA concentration OD278/OD490=0.19)(see FIG. 31), when SP1 absorption peak is at 278 nm (see FIG. 30), and it is not detected at 490 nm. […] FA complexing with the Cys2 Sp1 variant was determined following incubation of FA and Cys2 SP1 variant in the absence or presence of GSH, followed by protein oxidation, ultra filtration (30 kDa cutoff) and exhaustive wash of the retained fraction with PBS with or without GSH. Absorption analysis at both 278 and 490 nm.

[5] = Doxorubicin complex formation and release (ultrafiltration, HPLC, SDS PAGE fluorescence); assay type: binding; conditions: for DOX complex formation: reducing conditions (DTT or GSH)
Description: Pure wild type SP1 or Cys2 SP1 mutant (1.5 mg/ml in 20 mM Sodium Phosphate buffered, pH=6.8) were incubated overnight at room temp, with DOX 1 mg/ml in the presence of DTT (10 mM), with gentle rolling. Binding reaction was stopped by adding hydrogen peroxide (0.01%), followed by ultra filtration (using 30 kD cutoff filter) and extensive wash until follow-through become colorless. Optical density was measured at both 278 and 477 nm using nanodrop spectrophotometer. Note the dramatic effect of the reducing agent on drug binding by the Cys2 SP1, compared to the absence of effect on the wild type SP1.
FIG. 13 is a histogram illustrating the redox-dependent release of Doxorubicin by Cys2 SP1. Doxorubicin (DOX) was complexed within Cys2 SP1 as described in FIGS. 9-12 above. Release of the drug in the presence of 0, 2 and 20 mM GSH was measured by ultrafiltration and size exclusion HPLC analysis (detection at 228 and 475 nm);
FIG. 14 is a histogram illustrating the effect of oxidation on DOX complex formation by Cys2 SP1. Doxorubicin (DOX) was reacted with Cys2 SP1 and wild type SP1 as described in FIGS. 9-13 above. Oxidized protein indicates exposure to excess of H2O2 prior to treatment with GSH. DOX complex formation was measured by ultrafiltration and size exclusion HPLC analysis (detection at 228 and 475 nm). […] 1=the retentate; 2=the flow through; and 3=a DOX standard 20 μg/ml.
FIG. 17 is a photograph of a fluorescent PAGE analysis illustrating effective complex formation with DOX by Cys2 and SP1 fusion proteins. Recombinant wild type (lanes 1 and 2), Cys2 (lanes 3 and 4), and SP1 fusion proteins having additional N-terminal tumor specific peptide RGD (CRGD, SEQ ID NO:151; fusion protein is SEQ ID NO: 5)(lanes 5 and 6), or RGD in reverse order (RGDC, SEQ ID NO: 152; fusion protein is SEQ ID NO: 6)(lanes 7 and 8) were reacted with DOX to form complex as described in FIGS. 9-14 above, and then separated on SDS-PAGE with (lanes 2, 4, 6 and 8) or without (lanes 1, 3, 5 and 7) denaturation by boiling in LSB.
as §1, §2
Reverse phase HPLC (RP-HPLC) analysis separates between free DOX, PXT, and SP1. Both compounds bind to the resin (C-18) and are eluted at different acetonitrile concentrations, and detected at both 278 and 225 nm (SP1), 225 nm (PTX) and 477 nm (DOX).
Pyrogen free Cys2 SP1 variant (SEQ ID NO:3) in 20 mM (Na Phosphate buffer pH-6.7) final 2 mg/ml was diluted with DOX solution (Teva, Israel) 1:2 dilution final 1 mg/ml. Where indicated, GSH was added, and the solution is mixed overnight. Where indicated (oxidized), H2O2 is added to 0.1%, buffer added to 3× volume, and the solution is sonicated (3×22 sec. 1:1 pulse/pause at 3% amplitude 0.5 min. pause, using a Vibra-Cell 750 W sonicator).

[6] = Heat stability (no precipitation after heat treatment); conditions: 10 min at 100° C. or 30 min at 85° C.
[7] = Oligomeric complex formation by SDS PAGE (unboiled samples); conditions: boiling and protease stability
Description: SP1 (20 μg) was prepared in SDS sample buffer at different SP1-monomer: SDS molar ratios and boiled (or not) (5 mM) prior to SDS-PAGE analysis. Heat stability of SP1 oligomer (10 μg) was tested in the same buffer at SP1-monomer: SDS=1:1733 and heated for 1 to 10 mM at different temperatures.
Purified 6HSP1 and ΔNSP1 were first denatured to the monomeric forms by boiling the proteins in SDS sample buffer. The denatured proteins were then separated in preparative SDS-PAGE, and visualized by Coomassie blue staining. The monomeric forms of two recombinant protein bands were excised. Gel slices that carried monomeric form of 6HSP1 (SEQ ID NO:7) and ΔNSP1 (SEQ ID NO:2) were mixed at 1:1 ratio (v/v). In order to enhance the surface/volume ratio, the gel slices were pulverized using a pestle and mortar in the presence of liquid nitrogen. […] The hetero-oligomeric complex was isolated by subjecting the eluated protein to Ni-NTA Agarose beads and the bound proteins were eluted by 400 mM imidazole using a standard procedure (Sigma protocol for P 6611). […] The composition of hetero-oligomeric SP1 was determined by SDS-PAGE and visualized by silver staining.

| Molecule | IC50 [1] [mg/L] | histological examination of the tumors [2] | average tumor size in the end of the experiment versus PBS-treated animals ([2]; 35 days) | protease resistance after hexane treatment ([3]; hexane-treated, data not shown) | resistance of oligomeric complex to organic solvents ([3]; methanol, hexane, SDS-PAGE) | FA complexing at low ligand concentration ([4]; 10 μM FA, 10 mM DTT) | efficiency of FA complexing in the presence of reducing agents ([4]; 10 mM DTT) | retention of the flourescein-amine ([4]; absence of the reducing agent (GSH), 492/278 ratio) | efficiency of FA complexing relative to wild type SP1 ([4]; ≧100 μM FA) | DOX complexing after oxidation prior to DOX addition ([5]; oxidized protein (H2O2)) | DOX complex formation [5] | DOX complex formation ([5]; listed as Cys2 SP1 variant) | Heat stability [6] | oligomeric complex formation, stability and resistance [7] |
| --- | --- | --- | --- | --- | --- | --- | --- | --- | --- | --- | --- | --- | --- | --- |
| COc1cccc2c1C(=O)c1c(O)c3c(c(O)c1C2=O)C[C@@](O)(C(=O)CO)C[C@@H]3O[C@H]1C[C@H](N)[C@H](O)[C@H](C)O1 [doxorubicin] | ~0.6 (≈ 1.1 µM) | extensive necrosis | much smaller | – | – | – | – | – | – | – | – | – | – | – |
| Cys2: SP1 variant with cysteine residue inserted in position 2, SEQ ID NO:3 (protein, Sp1 mutant variant Cys in position 2) MCATRTPKLVKHTLLTRFKDEITREQIDNYINDYTNLLDLIPSMKSFNWGTDLGMESAELNRGYTHAFESTFESKSGLQEYLDSAALAAFAEGFLPTLSQRLVIDYFLY | – | – | – | resistance to protease treatment | Predominantly high molecular weight oligomer complex form; also recorded: even more resistant than the wild type | efficient complexing | greater than 3 fold | negligible | greater than 3 fold | eliminates DOX complexing | effective binding | much greater extent | + | formed homo- and hetero-oligomeric complexes |
